Assay [1] deals with Cynomolgus IL-5 (cynomolgus monkey). Kind of assay: cell-based or functional assay.
Assay [2] addresses recombinant human IL-5 (human) (UniProt P05113). The assay is described as follows: cell-based or functional assay.

With Mepolizumab (antibody), the Mean (pM): mean IC50, TF-1.6G4 cell line proliferation assay amounted to 584 pM in assay [1] and 534 pM in assay [2].

For the origin of these results see patent publication US20210355205A1.
